Data from the nanobody polyreactivity screen of Harvey et al. (2022).

Assay: yeast display, Sf9 membrane polyspecificity reagent, FACS + sequencing; frameworks hold sequencing errors
How it was run: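 Nanobodies came from a synthetic yeast display library in Saccharomyces cerevisiae BJ5465, induced with galactose for 36–48 hours and stained for 1 hour at 4 °C with 10% biotinylated, detergent-solubilized Sf9 membrane reagent. Cells were enriched on streptavidin microbeads and then FACS-sorted, with low and high (top ~1%) gates set on anti-HA fluorescence for expression and streptavidin fluorescence for reagent binding. Each polyreactivity label reflects the gate a clone came from. Genes were amplified by colony PCR, sequenced by MiSeq 2 × 250 and filtered by CDR length.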

| Sequence | polyreactivity (PSR sort gate) |
| --- | --- |
| QVQLVESGGGLVQAGGSLRLSCAASGRTFGSNAMGWYRQAPGKERELVAAIRWGGGSTYYADSVKGRFTISRDNAKNTVYLQMNSLKPEDTAVYYCAAAYNWRKYDYWGQGTQVTVSS | high polyreactivity |
| QVQLVDSGGGLVQAGGSLRLSCAASGYIFRVYAMGWYRQAPGKERELVAAISGSGGRTYYADSVKGRFTISRDNAKNTVYLQMNSLKPEDTAVYYCAAYRVSDYDYWGQGTQVTVSS | high polyreactivity |
| QVQLVESGGGLVQAGGCLRLSCAASGFIFYVNAMGWYRLAPGKERELVAAISSSGTRTYYADSVKGRFTISRDNAKNTVYLQMNSLKPEDTAVYYCNAAQSVELGYDYWGQGTQVTVSS | high polyreactivity |
| QVQLVESGGGLVQAGGSLRLSCAASGRIFYLYAMGWYRQAPGKERELVAGITSGGRTNYADSVKGRFTISRDNAKNTVYLQMNSLKPEDTAVYYCAAYYWGRYTGYYWGQGTQVTVSS | high polyreactivity |
| QVQLVESGGGLVQAGGRLRLSCAASGLTFLPNAMGWYRQAPGKERELVAAISWSDVRTYYADSVKGRFTISRDNAKNTVYLQMNSLKPEDTAVYYCAAEIYDLPEGDYWGQGTQVTVSS | high polyreactivity |
| QVQLVESGGGLVQAGGSLRLSCAASGRTFYQYAMGWYRQARGKERELVAAISRRGGSTYYADSVKGRFTISRDNAKNTVYLQMNSLKPEDTAVYYCAARVRGKYDYWGQGTQVTVSS | high polyreactivity |
| QVQLVESGGGLVQAGGSLRLSCAASGFTLDWYVMGWYRQAPGKERELVAAISSSGGRTYYADSVKGRFTISRDNAKNTVYLQMNSLKPEDPAVYYCAARNKYGGYPYGYDYWGQGTQVTVSS | high polyreactivity |
| QVQLVESGGGLVQAGGSLRLSSAASGITLKRYALGWYRHAPGKERELVAAITGRGGGTNYADSVKGRFTISRDNAKNTVYLQMNSLKPEDTAVYYCAARYLQGRYDYWGQGTQVTVSS | high polyreactivity |
| QVQLVESGGGLVQAGGSLRLSCAASGSIFYTNAMGWDRQAPGKERELVATITSSTGSTNYADSVKGRFTISRDNAKNTVYLQMNSLKPEDTAVYYCAKRDGYWVYYQMDYWGQGTQVTVSS | low polyreactivity |
| QVQLVESGGGLVQAGGSLRLSCAASGSTFRYNVMGWYRQAPGKERELVATISYSGGSTNYADSVKGRFTISRDNAKNTDYLQMNSLKPEDTAVYYCAARYLYPFYRYWWYDYWGQGTQVTVSS | high polyreactivity |
| QVQLVESGGGLVQAGGSLRLSCAASGYIIFGNAMGWYRQAPGKERELVAAIRWRGTSTYYADSVKGRFTISRDNAKNTVYLQMNSLKPEDTAVYYCAADVVRSNFYGTFLYDYDYWGQGTQVTVSS | low polyreactivity |
| QVQLVESGGGLVQAGGSLRLSCAASGNTFYFYAMGWYRQAPGKERELVASITRRGGSTYYADSVKGRFTISRDNAKNTVYLQMNSLKPEDTAVYYCARYPARYGGYYDYDYWGQGTQVTVSS | high polyreactivity |
| QVQLVESAGGLVQAGGSLRLSCAASGRNFVDYAMGWYRQAPGKERELVAAITQRGGSTYYADSVKGRFTISRDNAKNTVYLQMNSLKPEDTAVYYCAAVTRFYTKYYWGQGTQVTVSS | high polyreactivity |
| QVQLVESGGGLVQAGGSLRLSCAASGIIFYHYAMGWYRPAPGKEREFVAAITWDGGNTSYADSVKGRFTISRDYAKNTFYLQMNSLIPEDTAVYYCNTDRGPVKVSPLYESWGQGTQVTVSS | low polyreactivity |
| QVQLVESGGGLVQAGGSLRLSCAASGSTFGENDRGWSRQEPGKERELVAAITWSGGSTYYADSVKGRFTISRDNAKNTVYLQMNSLKPEDTAVYYCAADRYWIVLYDYWGQGTQVTVSS | low polyreactivity |
| QVQLVESGGGLVQAGGSLRLSCAASGIIFSSYAMGWYRQAPGKERELVAAITYNGGRTYYADSVKGRFTISRDNAKNTVYLQMNSVKPEDTAVYYCAAERYPYGVTYSKLDYWGQGTQVTVSS | high polyreactivity |

| Sequence | polyreactivity (PSR sort gate) |
| --- | --- |
| QVQLVESGGGLVQAGGSLRISCAASGRIFYVYAMGWYRQAPGKERELVAAISTGSPTYYADSVNGRFTISRDNAKNTVYLQMNSLKPEDTAVYFCATGSIHGDFWSFRHQYYYWGQGTQVTVSS | low polyreactivity |
| QVQLVESGGGLVQAGGSLRLSCAASGFIIKFYAMGWYRPAPGKERELVAAISWRGGSTYYADSVKGRFTISRDIAKNTVYLQMNSLKPEDTAVYYCNKAGKARYWGRYNYWGQGTQVTVSS | high polyreactivity |
| QVQIVESGGGLVQAGGSLRLSCAASGYPFCRNAMGCYRQAPGKERELVAAISRSAGSTNYADSVKGRFTISRDNAMYTVYFQMNSLKPEDTAVYYGAADRYYRDPYWGNYWGQGTQVTVSS | high polyreactivity |
| QVQLVESGGGLVQAGGSLRLSCDASGYTFRRYAMGWYIQAPGKEREMVAAITNSGGSTYYADSVKGRFTISRDNAKNTVYLQMNSLKPEDTAVYYCVALRSAGAYDYWGQGTQVTVSS | low polyreactivity |
| QVQLVESGGGLVQAGGSLRLSCAASGSTIYPYAMGWYRQAPGKERELVAAISSGGRTYYADSVKGRFTISRDNAKNTVYLQMNSLKPEDTAVYYCAARVTKKYRRTYDYWGQGTQVTVSS | high polyreactivity |
| QVQLVESGGGLVQAGGSLRLSCAASGSIFGYYAMGWYRQAPGKERELVAAISWSGGRTYYADSVKGRFTISRDNAKNTVYLQMNSLKPEDTAVYYCNARWRSGPRAYDYWGQGTQVTVSS | high polyreactivity |
| QFQLVESCGGLVHAGGSLRLSCAASGSIFFSYAMGWYRQAPGKERELVAAISSGGSTYYADSVKGRFTISRDNAKNTVYLQMNSLKPEDTAVYYCAARGYRLVPVDFYYWGQGTQVTVSS | low polyreactivity |
| QVQLVESGGGLVQAGGSLRLSCAASGSTFSPNAMGWYRQAPGKERELVAAITYRGANTYYADSVKGRFTISRDNEKNTVYLQMNSLKPEDTAVYYCAAEYAYHHVGFGYWGQGTQVTVSS | low polyreactivity |
| QVQLVESGGGLVQAGGSLRLSCAASGFTFGRYAMGWYRQAPGKERELVAAIATRGGSTYYADSVKGRFTISRDNAMNTVYLQMNSLKPEDTAVYYCAAGGYYVRYDYWGQGTQVTVSS | high polyreactivity |
| QVQLVESGGGLVQAGRSLRLSCAASGRTFPYYAMGWYRQAHGKEREFVAAISRRGASTYYADSVKGRFTISRDNAKNTVNLQMNSLKPEDTAVYYCNAVYRCYYSGELDYWGQGTQVTVSS | high polyreactivity |
| QVQLVESGVGLVQAGGTLRLSCAATGSIFWDYAMGWYRHAPGKERQLVASITSGGSTYYADSVKGRFTISRDNAMNTVYLQMNSLKPEETAVYYCAADGHTRHWGQTGRGAMYYWGQGTQVTVSS | low polyreactivity |
| QVQLVESGGGLVQAGGSLRLSCAASGSTFTGYAMGWYRQAPGKERELVAAISRSGGSTYYADSVKGRFTISRDNAKNTVYLQMNSLKPEDTAVYYCYVDPSARRYVYWGQGTQVTVSS | high polyreactivity |
| QVQLVESGGGLVQAGGSLRLSCAASGFIFVGNDMGWYRQAPGKERELVAAISSGGSTYYADSVKGRFTISRDNAKNTVYLQMNSLKPEDTAVYYCAATYVYYLYGYWGQGTQVTVSS | low polyreactivity |
| QFQLVESGGGLVQAGGILRLSCAASGSIFYHNAMGWSRQAPGKERELVAAITGSGGSTYYADSVKGRFTISRDNAKNTVYLQMNSLKPEDTAVYYCAADGYTKWWISWGYDYWGQGTQVTVSS | low polyreactivity |
| QVQLVESGGGLVQAGGSLRLSCAASGSTFGVYDMGWYRQAPGKERELVAAITGNGGRTYYADSVKGRFTISRDNAKNTVYLQMNSLKPEDTAVYYCNARVKRYVYWPYDYWGQGTQVTVSS | high polyreactivity |
| QVQLEESGGGLVQAGGSLRLSCAASGNTFPGYAMGWYRQAPGKERELVARISRSGGSTYYADSVKGRFTISRDNAKKTVYLQMNSLKPEDTAVYYCAAGAYRSGGYSFDYWGQGTQVTVSS | low polyreactivity |
